Results on 22 molecules are retold here after publication PMC10318062 (Nature Communications, 2023).

The chains are these.
B1: P2B-2F6 (antibody, V domains shown)
VH: QVQLQESGPGLVKPSETLSLTCTVSGYSISSGYYWGWIRQPPGKGLEWIGSIYHSGSTYYNPSLKTRVTISVDTSKNQFSLKLSSVTAADTAVYYCARAVVGIVVVPAAGRRAFDIWGQGTMVTVSS
VL: QSALTQPPSASGSPGQSVTISCTGTSSDVGGYNYVSWYQQHPGKAPKLMIYEVSKRPSGVPDRFSGSKSGNTASLTVSGLQAEDEADYYCSSYAGSNNLVFGGGTKLTVL
B2: S2E12 (antibody, V domains shown)
VH: not shown
VL: DIVLTQTPGTLSLSPGERATLSCRASQSVSSSYLAWYQQKPGQAPRLLIYGASSRATGIPDRFSGSGSGTDFTLTISRLEPEDFAVYYCQQYVGLTGWTFGQGTKVEIK
B3: S2X35 (antibody, V domains shown)
VH: QVQLVQSGAEVKKPGASVKVSCKASGYTFTNYGISWVRQAPGQGLEWMGWISAYKGNTNYAQKLQGRVTMTTDTSTSTAYMELRSLRSDDTAVYYCARPDYQVLGYDFWIGYYGMDVWGQGTTVIVSS
VL: QSVLTQPPSVSGAPGQRVTISCTGSSSNIGAGYDVHWYQQLPGTAPKLLIYGNTNRPSGVPDRFSGSKSGTSASLAITGLQAEDEADYYCQSYDSSLSGSEVVFGGGTKLTVL
B4: COVA2-16 (antibody, V domains shown)
VH: QVQLVQSGAEVKKPGATVKISCKVSGYTFTDYYMHWVQQAPGKGLEWMGLVDPEDGETIYAEKFQGRVTITADTSTDTAYMELSSLRSEDTAVYYCASSDSSGFVGSRGFDYWGQGTRVTVSS
VL: DIQLTQSPSSLSASVGDRVTITCRASQGIRNDLGWYQQKPGKAPKRLIYAASSLQSGVPSRFSGSGSGTEFTLTISSLQPEDFATYYCLQHNSYPPLFGQGTKVEIK
B5: COVA2-20 (antibody, V domains shown)
VH: EVQLVESGGGLIQPGGSLRLSCAASGFTVSSNYMSWVRQAPGKGLEWVSVIYSGGSTYYADSVKGRFTISRDNSKNTLYLQMNSLRAEDTAVYYCASPLLLTPPDYYYYMDVWGKGTMVTVSS
VL: B4 VL with I2V, Q3V, L4M, A13V, P95L, P96W, L97T, V104L
B6: COVA2-17 (antibody, V domains shown)
VH: QVQLVESGAEVKKPGSSVKVSCKASGGTFSSYGINWVRQAPGQGLEWMGGIIPIFGTANYAQKFQGRVTITTDESTSTAYMELSSLRSEDTAVYYCASFGDDSGDEGVRWGQGTLVTVSS
VL: EIVMTQSPATLSLSPGERATLSCRASQSVSSYLAWYQQKPGQAPRLLIYDASNRATGIPARFSGSGSGTDFTLTISSLEPEDFAVYYCQQRSNWPPYTFGQGTKVEIK
B7: S2M11 (antibody, V domains shown)
VH: EVQLVQSGAEVKKPGASVKVSCKASGYTFTGYYMHWVRQAPGQGLEWMGWINPISSGTSYAQTFQGRVTMTSDTSITTAYMELSRLRSDDTAVYYCARAAPFYDFWSGYSYFDYWGQGTLVTVSS
VL: not shown
B8: COVA1-16 (antibody, V domains shown)
VH: QVQLVQSGAEVKKPGASVKVSCKASGYTFTSYYMHWVRQAPGQGLEWMGIINSSGGSTSYAQKFQGRVTMTRDTSTSTVYMELSSLRSEDTAVYYCARPPRNYYDRSGYYQRAEYFQHWGQGTLVTVSS
VL: DIQLTQSPSSLSASVGDRVTITCQASQDISNYLNWYQQRPGKAPKLLIYDASNLETGVPSRFSGSGSGTDFTFTISSLQPEDIATYYCQQYDNPPLTFGGGTKLEIK
B9: COVA2-15 (antibody, V domains shown)
VH: QVQLLESGGGLVQPGGSLRLSCAASGFTFSSYAMSWVRQAPGKGLEWASAISGSGGSTYYADSVEGRFTISRDNSKNTLYLQMNSLRAEDTAVYYCAKDTGYCGDDCYIKLIRGGPDYWGQGTLVTVSS
VL: DIVMTQSPLSLPVTLGQPASISCRSSQSLVYSDGNTFLNWFQQRPGQSPRRLIYQVSNRDSGVPDRFSGSGSGTDFTLKISRVEAEDVGVYYCMQGTHWPRTFGQGTKLEIK
B10: S304 (antibody, V domains shown)
VH: VQLVESGGGLVQPGGSLRLSCAASGFTFSSYDMHWVRQTTGKGLEWVSTIGTAGDTYYPDSVKGRFTISREDAKNSLYLQMNSLRAGDTAVYYCARGDSSGYYYYFDYWGQGTLLTVSS
VL: DIEMTQSPSSLSAAVGDRVTITCRASQSIGSYLNWYQQKPGKAPKLLIYAASSLQSGVPSRFSGSGSGTDFTLTISSLQPEDFAIYYCQQSYVSPTYTFGPGTKVDIK
B11: COVA2-02 (antibody, V domains shown)
VH: VQLQQESGPGLVKPSETLSLTCTVSGGSISSSSYYWGWIRQPPGKGLEWIGSIYYSGSTYYNPSLKSRVTISVDTSKNQFSLKLSSVTAADTAVYYCARRSTSRWGYYYMDVWGKGTRVTVSS
VL: DIVMTQSPSSLSASVGDRVTITCRASQSISNYLNWYQQKPGKAPKLLLYAASDLQSGVPSRFSGSGSGTDFTLTISSLQPEDFATYYCQQSYSTHMSTFGQGTKVDIK
B12: COVA2-24 (antibody, V domains shown)
VH: EVQLVQSGAEVKKPGESLRISCKGSGYSFTSYWISWVRQMPGKGLEWMGRIDPSDSYTNYSPSFQGHVTISADKSISTAYLQWSSLKASDTAMYYCARPNPAGGYDSSGWVDAFDIWGQGTRVTVSS
VL: not shown
B13: COVA2-05 (antibody, V domains shown)
VH: EVQLLESGAEVKKPGESLKISCKGSGYSFTSYWIGWVRQMPGKGLEWMGIIYPGDSDTRYSPSFQGQVTISADKSISTAYLQWSSLKASDTAMYYCARHMRPSIAARPGYQYYMDVWGKGTRVTVSS
VL: not shown
B14: COVA2-07 (antibody, V domains shown)
VH: EVQLVETGGGLIQPGGSLRLSCAASGLTVSSNYMNWVRQAPGKGLEWVSVIYSGGSTYYADSVKGRFTISRDNSKNTLYLQMNSLRAEDTAVYYCAREAYGMDVWGQGTMVTVSS
VL: not shown
B15: COVA2-11 (antibody, V domains shown)
VH: EVQLVESGAEVKKPGSSVKVSCKASGGTLSSYAISWVRQAPGQGLEWMGGIIPIFGTANYAQKFQGRVTITTDESTSTAYMELSSLRSEDTAVYYCARGPRGCSSTSCYGSYFDYWGQGTLVTVSS
VL: not shown
B16: S2P6 (sdFab) (Fab, V domains shown)
VH: EVQLVQSGAEVKKPGASVKVSCKASGYTFTSQYMHWVRQAPGQGLEWIGIINPSGVHTSYAQKFQGRVTLTRDTSTSTLYMELSSLRSEDTAVYYCARGSPKGAFDYWGQGTLVTVSS
VL: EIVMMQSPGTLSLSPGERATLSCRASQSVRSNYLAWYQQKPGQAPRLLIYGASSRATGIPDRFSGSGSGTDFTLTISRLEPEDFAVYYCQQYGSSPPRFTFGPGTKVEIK
B17: LY-CoV555 (sdFab) (Fab, V domains shown)
VH: QVQLVQSGAEVKKPGSSVKVSCKASGGTFSNYAISWVRQAPGQGLEWMGRIIPILGIANYAQKFQGRVTITADKSTSTAYMELSSLRSEDTAVYYCARGYYEARHYYYYYAMDVWGQGTAVTVSS
VL: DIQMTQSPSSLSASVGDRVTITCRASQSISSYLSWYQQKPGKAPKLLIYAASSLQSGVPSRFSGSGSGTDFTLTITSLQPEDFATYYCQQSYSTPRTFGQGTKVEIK
B18: REGN10987 (sdFab) (Fab, V domains shown)
VH: QVQLVESGGGVVQPGRSLRLSCAASGFTFSNYAMYWVRQAPGKGLEWVAVISYDGSNKYYADSVKGRFTISRDNSKNTLYLQMNSLRTEDTAVYYCASGSDYGDYLLVYWGQGTLVTVSS
VL: QSALTQPASVSGSPGQSITISCTGTSSDVGGYNYVSWYQQHPGKAPKLMIYDVSKRPSGVSNRFSGSKSGNTASLTISGLQSEDEADYYCNSLTSISTWVFGGGTKLTVL
B19: CB6 (sdFab) (Fab, V domains shown)
VH: EVQLVESGGGLVQPGGSLRLSCAASGFTVSSNYMSWVRQAPGKGLEWVSVIYSGGSTFYADSVKGRFTISRDNSMNTLFLQMNSLRAEDTAVYYCARVLPMYGDYLDYWGQGTLVTVSS
VL: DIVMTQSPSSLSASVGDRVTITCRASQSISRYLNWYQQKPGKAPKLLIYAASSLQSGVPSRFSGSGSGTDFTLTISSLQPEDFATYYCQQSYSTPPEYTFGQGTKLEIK
B20: REGN10933 (sdFab) (Fab, V domains shown)
VH: QVQLVESGGGLVKPGGSLRLSCAASGFTFSDYYMSWIRQAPGKGLEWVSYITYSGSTIYYADSVKGRFTISRDNAKSSLYLQMNSLRAEDTAVYYCARDRGTTMVPFDYWGQGTLVTVSS
VL: B8 VL with L4M, S30T, R39K, D50A, S77G, P94L, L104V
B21: LY-CoV1404 (sdFab) (Fab, V domains shown)
VH: QITLKESGPTLVKPTQTLTLTCTFSGFSLSISGVGVGWLRQPPGKALEWLALIYWDDDKRYSPSLKSRLTISKDTSKNQVVLKMTNIDPVDTATYYCAHHSISTIFDHWGQGTLVTVSS
VL: QSALTQPASVSGSPGQSITISCTATSSDVGDYNYVSWYQQHPGKAPKLMIFEVSDRPSGISNRFSGSKSGNTASLTISGLQAEDEADYYCSSYTTSSAVFGGGTKLTVL
B22: AZD8895 (sdFab) (Fab, V domains shown)
VH: EVQLVQSGPEVKKPGTSVKVSCKASGFTFMSSAVQWVRQARGQRLEWIGWIVIGSGNTNYAQKFQERVTITRDMSTSTAYMELSSLRSEDTAVYYCAAPYCSSISCNDGFDIWGQGTMVTVSS
VL: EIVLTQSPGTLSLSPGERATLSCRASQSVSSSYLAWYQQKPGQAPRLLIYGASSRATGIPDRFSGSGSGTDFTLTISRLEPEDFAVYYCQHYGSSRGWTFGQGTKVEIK

Changes are numbered by the printed parent chain. Numbers in names are those of the source.

Chain of HCoV-OC43 S (P36334 14-1353): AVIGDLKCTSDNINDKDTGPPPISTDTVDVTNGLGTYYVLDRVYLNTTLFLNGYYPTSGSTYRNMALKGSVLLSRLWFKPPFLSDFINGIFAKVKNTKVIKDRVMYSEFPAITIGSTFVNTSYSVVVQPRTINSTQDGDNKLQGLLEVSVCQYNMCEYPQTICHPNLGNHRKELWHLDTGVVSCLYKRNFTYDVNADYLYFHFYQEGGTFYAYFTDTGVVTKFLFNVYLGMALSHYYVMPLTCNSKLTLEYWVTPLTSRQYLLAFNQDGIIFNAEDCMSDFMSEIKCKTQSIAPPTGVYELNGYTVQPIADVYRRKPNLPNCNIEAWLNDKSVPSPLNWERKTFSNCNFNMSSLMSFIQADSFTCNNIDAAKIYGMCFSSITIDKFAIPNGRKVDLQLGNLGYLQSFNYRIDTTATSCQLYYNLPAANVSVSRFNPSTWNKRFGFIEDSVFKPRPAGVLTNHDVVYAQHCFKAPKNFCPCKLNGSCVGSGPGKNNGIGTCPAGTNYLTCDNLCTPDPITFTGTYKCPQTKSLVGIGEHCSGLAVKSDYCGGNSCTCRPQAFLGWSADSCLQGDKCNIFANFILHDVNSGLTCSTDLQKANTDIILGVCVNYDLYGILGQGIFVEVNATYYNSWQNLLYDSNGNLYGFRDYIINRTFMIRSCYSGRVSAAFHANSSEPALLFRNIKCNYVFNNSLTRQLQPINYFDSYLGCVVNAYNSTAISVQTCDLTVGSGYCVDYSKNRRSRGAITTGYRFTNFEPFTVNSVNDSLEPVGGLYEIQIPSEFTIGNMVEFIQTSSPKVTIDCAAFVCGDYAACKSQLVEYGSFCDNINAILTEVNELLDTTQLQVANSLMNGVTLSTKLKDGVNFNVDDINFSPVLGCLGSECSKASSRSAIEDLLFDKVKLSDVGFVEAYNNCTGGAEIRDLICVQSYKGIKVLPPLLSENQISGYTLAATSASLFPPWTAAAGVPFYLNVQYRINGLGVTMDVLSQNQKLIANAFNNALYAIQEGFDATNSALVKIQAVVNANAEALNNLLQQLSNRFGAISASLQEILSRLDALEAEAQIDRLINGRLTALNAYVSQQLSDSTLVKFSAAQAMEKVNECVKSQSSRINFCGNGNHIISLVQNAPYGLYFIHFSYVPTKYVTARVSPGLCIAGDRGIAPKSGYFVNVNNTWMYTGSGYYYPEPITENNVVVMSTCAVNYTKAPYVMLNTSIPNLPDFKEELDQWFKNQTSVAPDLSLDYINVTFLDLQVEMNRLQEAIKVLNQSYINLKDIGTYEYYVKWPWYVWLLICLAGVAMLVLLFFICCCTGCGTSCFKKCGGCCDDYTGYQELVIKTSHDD

For the first test, the target named is SARS-CoV-2 hexaproline stabilized pre-fusion spike glycoprotein (S6P) (SARS-CoV-2, ancestral (Wuhan-Hu-1 …, UniProt P0DTC2, stabilised)).
Experiment: not given
Settings: not given
B1: the binding result is listed as “binds”.
Turning to B2, the binding result is reported as “binds”.
Same read-out and setting: for B3 the value was “binds”; for B4, “binds”.
For B5, the binding result was “binds”.
Still for that read-out and setting: for B6 the value was “binds”.
For the molecule B7, the binding result is on record as “binds”.
Same read-out and setting: to B8 belongs “binds”; to B9, “binds”.
Still for that read-out and setting: to B10 belongs “binds”.
Still for that read-out and setting: for B11 the value was “binds”.

The next test concerns the target T1, SARS-CoV-2 Receptor Binding Domain (RBD) (SARS-CoV-2, UniProt P0DTC2).
Experiment: not given
Settings: not given
B12: the binding result is recorded as “binds”.
On the same count and under the same terms, for B13 the value was “binds”; for B14, “binds”; for B4, “binds”.
Still for that read-out and setting: for B5 the value was “binds”; for B6, “binds”.
Turning to B8, the binding result is reported as “binds”.
Turning to B9, the binding result is reported as “binds”.
The same measure, in the same setting: to B15 belongs “binds”; to B11, “binds”.

The next test has as its target HCoV-OC43 S (HCoV-OC43, strain ; reference …, UniProt P36334). Nature of the test: AlphaScreen or HTRF. Particulars: one partner purified.
Consider B16, for which the binding result is “binds”.

For a further test, the target named is T1, SARS-CoV-2 Receptor Binding Domain (RBD). Nature of the test: AlphaScreen or HTRF. Particulars: one partner purified. For orientation: In Alpha technology, singlet oxygen from a donor bead excites a nearby acceptor bead.
B17: the binding result was “binds”.
The same measure, in the same setting: to B18 belongs “binds”.
The same measure, in the same setting: to B19 belongs “binds”.
On the same count and under the same terms, to B20 belongs “binds”; to B21, “binds”.
For B22, the binding result was “binds”.
